Laboratory results reported in patent publication US20210355194A1 (TWIST BIOSCIENCE, published 2021).

Target: CV S-protein construct 6 trimer TP31001F (SARS-CoV-2, UniProt P0DTC2 14-1208)
Assay: SPR

| Binder | Kd [nM] |
| --- | --- |
| variant 5-37 (Fc fusion) VHH: EVQLVESGGGLVQPGGSLRLSCAASGSTFSINAMGWFRQAPGKEREFVGGISRSGATTNYADSVKGRFTISADNSKNTAYLQMNSLKPEDTAVYYCAADGVPEYSDYASGPVWGQGTLVTVSS | 1.8 |
| variant 6-55 (Fc fusion) VHH: EVQLVESGGGLVQPGGSLRLSCAASGFTMSSSWMGWFRQAPGKEREFVARITSGGSTGYADSVKGRFTISADNSKNTAYLQMNSLKPEDTAVYYCASVDGYFDYWGQGTLVTVSS | 0.3 |
| variant 6-52 (Fc fusion) VHH: EVQLVESGGGLVQPGGSLRLSCAASGDTYGSYWMGWFRQAPGKEREVVAAITSGGSTVYADSVKGRFTISADNSKNTAYLQMNSLKPEDTAVYYCARVDSRFDYWGQGTLVTVSS | 1.1 |
| variant 6-22 (Fc fusion) VHH: EVQLVESGGGLVQPGGSLRLSCAASGRTFSEVVMGWFRQAPGKEREFVATIHSSGSTSYADSVKGRFTISADNSKNTAYLQMNSLKPEDTAVYYCVRVTSDYSMDSWGQGTLVTVSS | 1.8 |
| variant 6-60 (Fc fusion) VHH: EVQLVESGGGLVQPGGSLRLSCAASGDTYGSYWMGWFRQAPGKEREFVATISQSGAATAYADSVKGRFTISADNSKNTAYLQMNSLKPEDTAVYYCAGLLRYSGTYYDAFDVWGQGTLVTVSS | 0.1 |
| variant 6-58 (Fc fusion) VHH: EVQLVESGGGLVQPGGSLRLSCAASGRAVSTYAMGWFRQAPGKEREFVAAISGSENVTSYADSVKGRFTISADNSKNTAYLQMNSLKPEDTAVYYCLSVTGDTEDYGVFDTWGQGTLVTVSS | 1 |
| variant 6-13 (Fc fusion) VHH: EVQLVESGGGLVQPGGSLRLSCAASGLTFNDYAMGWFRQAPGKEREFVAHIPRSTYSPYYADSVKGRFTISADNSKNTAYLQMNSLKPEDTAVYYCAFLVGPQGVDHGAFDVWGQGTLVTVSS | 0.6 |
| variant 6-20 (Fc fusion) VHH: EVQLVESGGGLVQPGGSLRLSCAASGSTLPYHAMGWFRQAPGKEREFVAAITWNGASTSYADSVKGRFTISADNSKNTAYLQMNSLKPEDTAVYYCARDRYYDTSASYFESETWGQGTLVTVSS | 0.3 |
| variant 6-37 (Fc fusion) VHH: EVQLVESGGGLVQPGGSLRLSCAASGHTFSTSWMGWFRQAPGKEREFVATINSLGGTNYADSVKGRFTISADNSKNTAYLQMNSLKPEDTAVYYCARVSSGDYGMDVWGQGTLVTVSS | 0.7 |
| variant 6-76 (Fc fusion) VHH: EVQLVESGGGLVQPGGSLRLSCAASGLAFDFDGMGWFRQAPGKEREGVAAINSGGSTYYADSVKGRFTISADNSKNTAYLQMNSLKPEDTAVYYCARFFRAHDYWGQGTLVTVSS | 1.77 |
| variant 5-47 (Fc fusion) VHH: EVQLVESGGGLVQPGGSLRLSCAASGFTFGSYDMGWFRQAPGKEREFVTAINWSGARTAYADSVKGRFTISADNSKNTAYLQMNSLKPEDTAVYYCAARSVYSYEYNWGQGTLVTVSS | 0.7 |
| variant 6-10 (Fc fusion) VHH: EVQLVESGGGLVQPGGSLRLSCAASGSIASIHAMGWFRQAPGKEREFVAAISRSGGFGSYADSVKGRFTISADNSKNTAYLQMNSLKPEDTAVYYCARDDKYYDSSGYPAYFQHWGQGTLVTVSS | 0.6 |
| variant 5-56 (Fc fusion) VHH: EVQLVESGGGLVQPGGSLRLSCAASGRTFSSNMGWFRQAPGKEREFVARIFGGDRTLYADSVKGRFTISADNSKNTAYLQMNSLKPEDTAVYYCADINGDWGQGTLVTVSS | 2.77 |
| variant 6-2 (Fc fusion) VHH: EVQLVESGGGLVQPGGSLRLSCAASGFTMSSSWMGWFRQAPGKEREFVTVISGVGTSYADSVKGRFTISADNSKNTAYLQMNSLKPEDTAVYYCARGPDSSGYGFDYWGQGTLVTVSS | 1.2 |
| variant 6-38 (Fc fusion) VHH: EVQLVESGGGLVQPGGSLRLSCAASGNTFSGGFMGWFRQAPGKEREFVAVISSLSSKSYADSVKGRFTISADNSKNTAYLQMNSLKPEDTAVYYCAKVDSGYDYWGQGTLVTVSS | 0.5 |
| variant 6-73 (Fc fusion) VHH: EVQLVESGGGLVQPGGSLRLSCAASGHTFSGYAMGWFRQAPGKEREFVAVITREGSTYYADSVKGRFTISADNSKNTAYLQMNSLKPEDTAVYYCARLGGEGFDYWGQGTLVTVSS | 0.52 |
| variant 6-32 (Fc fusion) VHH: EVQLVESGGGLVQPGGSLRLSCAASGFTLDYYDMGWFRQAPGKEREFVALISWSGGSTYYADSVKGRFTISADNSKNTAYLQMNSLKPEDTAVYYCATDFYGWGTRERDAFDIWGQGTLVTVSS | 0.1 |
| variant 6-103 (Fc fusion) VHH: EVQLVESGGGLVQPGGSLRLSCAASGRTSSPIAMGWFRQAPGKEREPVAVRWSDDYTYYADSVKGRFTISADNSKNTAYLQMNSLKPEDTAVYYCAKKLGGYYAFDIWGQGTLVTVSS | 1 |
| variant 6-24 (Fc fusion) VHH: EVQLVESGGGLVQPGGSLRLSCAASGFTLDYYAMGWFRQAPGKEREFVAAINWSGDNTHYADSVKGRFTISADNSKNTAYLQMNSLKPEDTAVYYCARAPFYCTTTKCQDNYYYMDVWGQGTLVTVSS | 0.2 |
| variant 5-60 (Fc fusion) VHH: EVQLVESGGGLVQPGGSLRLSCAASGRSFSSHRMGWFRQAPGKEREFVAAIMWSGSHRNYADSVKGRFTISADNSKNTAYLQMNSLKPEDTAVYYCAAIAYEEGVYRWDWGQGTLVTVSS | 0.8 |
| variant 6-34 (Fc fusion) VHH: EVQLVESGGGLVQPGGSLRLSCAASGSAFRSNAMGWFRQAPGKEREFVAHISWSSKSTYYADSVKGRFTISADNSKNTAYLQMNSLKPEDTAVYYCATYCSSTSCFDYWGQGTLVTVSS | 0.7 |
| variant 5-67 (Fc fusion) VHH: EVQLVESGGGLVQPGGSLRLSCAASGFNVNDYAMGWFRQAPGKEREFVAGITSSVGVTNYADSVKGRFTISADNSKNTAYLQMNSLKPEDTAVYYCAADIFFVNWGRGTLVTVSS | 1 |
| variant 6-78 (Fc fusion) VHH: EVQLVESGGGLVQPGGSLRLSCAASGRTYDAMGWFRQAPGKEREFVASVTSGGYTHYADSVKGRFTISADNSKNTAYLQMNSLKPEDTAVYYCAKFGRKIVGATELDYWGQGTLVTVSS | 0.4 |
| variant 6-46 (Fc fusion) VHH: EVQLVESGGGLVQPGGSLRLSCAASGLTFSAMGWFRQAPGKEREFVALIRRDGSTIYADSVKGRFTISADNSKNTAYLQMNSLKPEDTAVYYCAALGILFGYDAFDIWGQGTLVTVSS | 1.9 |
| variant 6-18 (Fc fusion) VHH: EVQLVESGGGLVQPGGSLRLSCAASGLTFRNYAMGWFRQAPGKEREFIAGMMWSGGTTTYADSVKGRFTISADNSKNTAYLQMNSLKPEDTAVYYCAREGYYYDSSGYLNYFDYWGQGTLVTVSS | 5.3 |
| variant 6-5 (Fc fusion) VHH: EVQLVESGGGLVQPGGSLRLSCAASGRTFTMGWFRQAPGKEREFVASTNSAGSTNYADSVNGRFTISADNSKNTAYLQMNSLKPEDTAVYYCTTVDQYFDYWGQGTLVTVSS | 0.8 |
| variant 5-32 (Fc fusion) VHH: EVQLVESGGGLVQPGGSLRLSCAASGFTPDNYAMGWFRQAPGKEREFVAALGWSGVTTYHYYADSVKGRFTISADNSKNTAYLQMNSLKPEDTAVYYCASDESDAANWGQGTLVTVSS | 0.1 |

Target: Acro COVID S1 (S1N-C82E8) (SARS-CoV-2, UniProt P0DTC2 16-685)
Assay: phage ELISA

| Binder | specificity ELISA, fold over background [fold over background] |
| --- | --- |
| variant 2-4 (antibody, V domains shown) VH: EVQLLESGGGLVQPGGSLRLSCAASGFTFSDFAMAWVRQAPGKGLEWVSAISGSGDITYYADSVKGRFTISRDNSKNTLYLQMNSLRAEDTAVYYCAREADGLHSPWHFDLWGQGTLVTVSS VL: DIQMTQSPSSLSASVGDRVTITCRASQSIDTYLNWYQQKPGKAPKLLIYAASALASGVPSRFSGSGSGTDFTLTISSLQPEDFATYYCQQSYSAPPYTFGQGTKVEIK | 37.7 |
| variant 2-5 (antibody, V domains shown) VH: EVQLLESGGGLVQPGGSLRLSCAASGFTFSDFAMAWVRQAPGKGLEWVSAISGSGDITYYADSVKGRFTISRDNSKNTLYLQMNSLRAEDTAVYYCAREADGLHSPWHFDLWGQGTLVTVSS VL: DIQMTQSPSSLSASVGDRVTITCRASQSIHTYLNWYQQKPGKAPKLLIYAASALASGVPSRFSGSGSGTDFTLTISSLQPEDFATYYCQQSYSAPPYTFGQGTKVEIK | 38.3 |
| variant 2-2 (antibody, V domains shown) VH: EVQLLESGGGLVQPGGSLRLSCAASGFTFSRHAMNWVRQAPGKGLEWVSGISGSGDETYYADSVKGRFTISRDNSKNTLYLQMNSLRAEDTAVYYCARDLPASYYDSSGYYWHNGMDVWGQGTLVTVSS VL: DIQMTQSPSSLSASVGDRVTITCRASQTINTYLNWYQQKPGKAPKLLIYSASTLQSGVPSRFSGSGSGTDFTLTISSLQPEDFATYYCQQSYSTFTFGQGTKVEIK | 39.4 |
| variant 2-1 (antibody, V domains shown) VH: EVQLLESGGGLVQPGGSLRLSCAASGFTFSNYATDWVRQAPGKGLEWVSIISGSGGATYYADSVKGRFTISRDNSKNTLYLQMNSLRAEDTAVYYCAKGGYCSSDTCWWEYWLDPWGQGTLVTVSS VL: DIQMTQSPSSLSASVGDRVTITCRASQSIHRFLNWYQQKPGKAPKLLIYAASNLHSGVPSRFSGSGSGTDFTLTISSLQPEDFATYYCQQSYGLPPTFGQGTKVEIK | 39.3 |
